Laboratory results published in patent US6867016.

Target: rabbit anti-CS141 peptide antiserum raised against unconjugated peptide SEQUENCE ID NO 26
Assay: competition Western blot; antiserum pre-incubated with varying concentrations of peptide immunogen

GPTMCFEDRMIMSPVKNNVGRGLNIALVNGTTGAVLGQK [CS141 synthetic peptide SEQUENCE ID NO 26]
concentration of peptide at which antibody binding to the band was inhibited: 2.54 µM
